# Assay results: patent US20230365675A1 (published 2023)
# How the values were obtained:
# [1] = target: T1, CD33 on MOLM-13 cells (human, UniProt P20138 18-364); assay: FACS, MOLM-13 cells expressing CD33 against MOLM-13 CD33 knockout
# T1 construct: whole, on cells; also called MOLM-13 cell line expressing CD33; wild-type MOLM-13 cells (CD33+)
# Text: A naïve llama phage library was panned and screened to identify single domain antibodies that specifically recognize CD33. A MOLM-13 cell line expressing CD33 was used as a CD33-positive cell line, and a MOLM-13 cell line harboring a knockout of CD33 was used as a CD-33 negative cell line. A purified anti-human CD33 antibody was used as a positive control. Specific binding activity of identified binders was confirmed by FACS. The heavy chain variable region sequences of the identified binders are included herein.
# [2] = target: Biotinylated CD33 protein (UniProt P20138); assay: Octet competition on biotinylated CD33; competitor 429
# Biotinylated CD33 protein, sequence (P20138 18-259 limits assumed): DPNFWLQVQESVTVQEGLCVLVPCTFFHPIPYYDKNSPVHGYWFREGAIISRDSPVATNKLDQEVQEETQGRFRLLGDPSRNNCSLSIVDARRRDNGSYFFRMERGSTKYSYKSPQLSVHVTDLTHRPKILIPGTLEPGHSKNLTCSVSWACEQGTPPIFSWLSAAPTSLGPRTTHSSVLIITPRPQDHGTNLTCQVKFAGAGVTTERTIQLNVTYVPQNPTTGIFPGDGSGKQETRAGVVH
# [3] = target: Biotinylated CD33 protein (UniProt P20138); assay: Octet competition on biotinylated CD33; competitor h195
# [4] = target: Biotinylated CD33 protein (UniProt P20138); assay: Octet competition on biotinylated CD33; competitor 389
# [5] = target: Biotinylated CD33 protein (UniProt P20138); assay: Octet competition on biotinylated CD33; competitor 348
# [6] = target: Biotinylated CD33 protein (UniProt P20138); assay: Octet competition on biotinylated CD33; competitor 426
# [7] = target: T2, Mutant CD33-GFP M7 (R98D) on 293FT cells (UniProt P20138 18-364); assay: FACS, mutant CD33-GFP on 293FT cells
# T2 construct: whole, on cells; not shown: GFP fused to CD33
# T2 sequence (P20138 18-364 R98D): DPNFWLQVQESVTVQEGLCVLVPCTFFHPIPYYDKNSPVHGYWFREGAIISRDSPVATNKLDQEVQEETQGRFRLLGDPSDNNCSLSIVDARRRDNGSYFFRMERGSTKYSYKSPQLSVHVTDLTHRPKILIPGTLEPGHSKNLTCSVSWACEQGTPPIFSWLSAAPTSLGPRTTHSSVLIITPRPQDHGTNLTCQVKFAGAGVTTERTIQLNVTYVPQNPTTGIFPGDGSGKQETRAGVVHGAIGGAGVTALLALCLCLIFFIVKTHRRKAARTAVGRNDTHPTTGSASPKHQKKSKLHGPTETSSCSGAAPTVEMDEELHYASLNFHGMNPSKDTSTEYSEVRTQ
# [8] = target: T3, Mutant CD33-GFP M8 (K52A) on 293FT cells (UniProt P20138 18-364); assay: FACS, mutant CD33-GFP on 293FT cells
# T3 construct: whole, on cells; not shown: GFP fused to CD33
# T3 sequence (P20138 18-364 K52A): as the sequence (P20138 18-364 R98D) above, with K35A, D81R counted along it
# [9] = target: T4, Mutant CD33-GFP M6 (F43N) on 293FT cells (UniProt P20138 18-364); assay: FACS, mutant CD33-GFP on 293FT cells
# T4 construct: whole, on cells; not shown: GFP fused to CD33
# T4 sequence (P20138 18-364 F43N): as the sequence (P20138 18-364 R98D) above, with F26N, D81R counted along it
# [10] = target: Biotinylated CD33 protein (UniProt P20138); assay: Octet competition on biotinylated CD33; competitor 353
# [11] = target: Biotinylated CD33 protein (UniProt P20138); assay: Octet competition on biotinylated CD33; competitor 420
# [12] = target: Biotinylated CD33 protein (UniProt P20138); assay: Octet competition on biotinylated CD33; competitor 413
# [13] = target: Mutant CD33-GFP M4 (R122D) on 293FT cells (UniProt P20138); assay: FACS, mutant CD33-GFP on 293FT cells
# Mutant CD33-GFP M4 (R122D) on 293FT cells, sequence (P20138 18-364 R122D): as the sequence (P20138 18-364 R98D) above, with D81R, R105D counted along it
# [14] = target: Mutant CD33-GFP JS28 (S28L) on 293FT cells (UniProt P20138); assay: FACS, mutant CD33-GFP on 293FT cells
# Mutant CD33-GFP JS28 (S28L) on 293FT cells, sequence (P20138 18-364 S28L): as the sequence (P20138 18-364 R98D) above, with S11L, D81R counted along it
# [15] = target: Mutant CD33-GFP JS24 (Q24E) on 293FT cells (UniProt P20138); assay: FACS, mutant CD33-GFP on 293FT cells
# Mutant CD33-GFP JS24 (Q24E) on 293FT cells, sequence (P20138 18-364 Q24E): as the sequence (P20138 18-364 R98D) above, with Q7E, D81R counted along it
# [16] = target: Mutant CD33-GFP M14 (E170R) on 293FT cells (UniProt P20138); assay: FACS, mutant CD33-GFP on 293FT cells
# Mutant CD33-GFP M14 (E170R) on 293FT cells, sequence (P20138 18-364 E170R): as the sequence (P20138 18-364 R98D) above, with D81R, E153R counted along it
# [17] = target: Mutant CD33-GFP M12 (G88S) on 293FT cells (UniProt P20138); assay: FACS, mutant CD33-GFP on 293FT cells
# Mutant CD33-GFP M12 (G88S) on 293FT cells, sequence (P20138 18-364 G88S): as the sequence (P20138 18-364 R98D) above, with G71S, D81R counted along it
# [18] = target: Mutant CD33-GFP JS23 (L23N) on 293FT cells (UniProt P20138); assay: FACS, mutant CD33-GFP on 293FT cells
# Mutant CD33-GFP JS23 (L23N) on 293FT cells, sequence (P20138 18-364 L23N): as the sequence (P20138 18-364 R98D) above, with L6N, D81R counted along it
# [19] = target: Mutant CD33-GFP M16 (4889AII) on 293FT cells (UniProt P20138); assay: FACS, mutant CD33-GFP on 293FT cells
# [20] = target: Mutant CD33-GFP M5 (AEAD), quadruple mutant, on 293FT cells (UniProt P20138); assay: FACS, mutant CD33-GFP on 293FT cells
# Mutant CD33-GFP M5 (AEAD), quadruple mutant, on 293FT cells, sequence (P20138 other isoform, or with tags, fused parts or gaps mutant): as the sequence (P20138 18-364 R98D) above, with W5A, H28E, D81R, N82A, R105D counted along it
# [21] = target: Mutant CD33-GFP M10 (Y127A) on 293FT cells (UniProt P20138); assay: FACS, mutant CD33-GFP on 293FT cells
# Mutant CD33-GFP M10 (Y127A) on 293FT cells, sequence (P20138 18-364 Y127A): as the sequence (P20138 18-364 R98D) above, with D81R, Y110A counted along it
# [22] = target: Mutant CD33-GFP M15 (Q171A) on 293FT cells (UniProt P20138); assay: FACS, mutant CD33-GFP on 293FT cells
# Mutant CD33-GFP M15 (Q171A) on 293FT cells, sequence (P20138 18-364 Q171A): as the sequence (P20138 18-364 R98D) above, with D81R, Q154A counted along it
# [23] = target: Mutant CD33-GFP M11 (L78T) on 293FT cells (UniProt P20138); assay: FACS, mutant CD33-GFP on 293FT cells
# Mutant CD33-GFP M11 (L78T) on 293FT cells, sequence (P20138 18-364 L78T): as the sequence (P20138 18-364 R98D) above, with L61T, D81R counted along it
# [24] = target: Mutant CD33-GFP M19 (348ATAI) on 293FT cells (UniProt P20138); assay: FACS, mutant CD33-GFP on 293FT cells
# [25] = target: Mutant CD33-GFP N20D on 293FT cells (UniProt P20138); assay: FACS, mutant CD33-GFP on 293FT cells
# Mutant CD33-GFP N20D on 293FT cells, sequence (P20138 18-364 N20D): as the sequence (P20138 18-364 R98D) above, with N3D, D81R counted along it
# [26] = target: Mutant CD33-GFP M13 (R91E) on 293FT cells (UniProt P20138); assay: FACS, mutant CD33-GFP on 293FT cells
# Mutant CD33-GFP M13 (R91E) on 293FT cells, sequence (P20138 18-364 R91E): as the sequence (P20138 18-364 R98D) above, with R74E, D81R counted along it
# [27] = target: Mutant CD33-GFP JS25 (V25M) on 293FT cells (UniProt P20138); assay: FACS, mutant CD33-GFP on 293FT cells
# Mutant CD33-GFP JS25 (V25M) on 293FT cells, sequence (P20138 18-364 V25M): as the sequence (P20138 18-364 R98D) above, with V8M, D81R counted along it
# [28] = target: Mutant CD33-GFP M9 (Y49, 50A) on 293FT cells (UniProt P20138); assay: FACS, mutant CD33-GFP on 293FT cells
# Mutant CD33-GFP M9 (Y49, 50A) on 293FT cells, sequence (P20138 other isoform, or with tags, fused parts or gaps mutant): as the sequence (P20138 18-364 R98D) above, with Y32A, Y33A, D81R counted along it
# [29] = target: Mutant CD33-GFP M18 (353AAL) on 293FT cells (UniProt P20138); assay: FACS, mutant CD33-GFP on 293FT cells
# [30] = target: Mutant CD33-GFP M17 (F21Y) on 293FT cells (UniProt P20138); assay: FACS, mutant CD33-GFP on 293FT cells
# Mutant CD33-GFP M17 (F21Y) on 293FT cells, sequence (P20138 18-364 F21Y): as the sequence (P20138 18-364 R98D) above, with F4Y, D81R counted along it
# [31] = target: CD33-GFP fusion protein, wild type (WT), on 293FT cells (UniProt P20138); assay: FACS, WT CD33-GFP on 293FT cells; also: unit not given here
# CD33-GFP fusion protein, wild type (WT), on 293FT cells, sequence (P20138 18-364): as the sequence (P20138 18-364 R98D) above, with D81R counted along it
# [32] = target: Biotinylated CD33 protein (UniProt P20138); assay: Octet competition on biotinylated CD33; competitor 416
# [33] = target: Biotinylated CD33 protein (UniProt P20138); assay: Octet competition on biotinylated CD33; competitor 424
# [34] = target: T5, Mutant CD33-GFP M1 (W22A) on 293FT cells (UniProt P20138 18-364); assay: FACS, mutant CD33-GFP on 293FT cells
# T5 construct: whole, on cells; not shown: GFP fused to CD33
# T5 sequence (P20138 18-364 W22A): as the sequence (P20138 18-364 R98D) above, with W5A, D81R counted along it
# [35] = target: T6, Mutant CD33-GFP M3 (N99A) on 293FT cells (UniProt P20138 18-364); assay: FACS, mutant CD33-GFP on 293FT cells
# T6 construct: whole, on cells; not shown: GFP fused to CD33
# T6 sequence (P20138 18-364 N99A): as the sequence (P20138 18-364 R98D) above, with D81R, N82A counted along it
# [36] = target: T7, Mutant CD33-GFP M2 (H45E) on 293FT cells (UniProt P20138 18-364); assay: FACS, mutant CD33-GFP on 293FT cells
# T7 construct: whole, on cells; not shown: GFP fused to CD33
# T7 sequence (P20138 18-364 H45E): as the sequence (P20138 18-364 R98D) above, with H28E, D81R counted along it
# [37] = target: Biotinylated CD33 protein (UniProt P20138); assay: Octet competition on biotinylated CD33; competitor 430
# T1 sequence (P20138 18-364): as the sequence (P20138 18-364 R98D) above, with D81R counted along it
binder,measurement,setting,value
"sdCD33_11 (VHH, sdAb from a naive llama phage library; also called 430; sdAb430) VHH: AVQLVESGGGLVQAGGSLRLSCAASGDTFANYAMGWFRQAPGKEREFVAAISWSDSSTHYADSVKGRFTIPRDNAKNAVYLQMDQLKPEDMAVYYCYAYIRGVGEVRYVDYWGQGTQVTVSS",binding result,[1],binds
same,Octet signal,[2],-0.29
same,Octet signal,[3],0.136
same,Octet signal,[4],0.0436
same,Octet signal,[5],-0.212
same,Octet signal,[6],-0.227
same,FACS binding data,[7],98.5
same,FACS binding data,[8],97.1
same,FACS binding data,[9],98.8
same,Octet signal,[10],-0.112
same,Octet signal,[11],-0.169
same,Octet signal,[12],-0.108
same,FACS binding data,[13],98.4
same,FACS binding data,[14],99.7
same,FACS binding data,[15],99.6
same,FACS binding data,[16],97.4
same,FACS binding data,[17],98.5
same,FACS binding data,[18],99.2
same,FACS binding data,[19],97.4
same,FACS binding data,[20],0.79
same,FACS binding data,[21],94.2
same,FACS binding data,[22],97.2
same,FACS binding data,[23],73.8
same,FACS binding data,[24],99.8
same,FACS binding data,[25],97.5
same,FACS binding data,[26],98.7
same,FACS binding data,[27],99.7
same,FACS binding data,[28],1.01
same,FACS binding data,[29],99.4
same,FACS binding data,[30],96.1
same,FACS binding data,[31],97.6
same,Octet signal,[32],-0.268
same,Octet signal,[33],-0.377
same,FACS binding data,[34],99.4
same,FACS binding data,[35],99.3
same,FACS binding data,[36],99.3
"sdCD33_6 (VHH, sdAb from a naive llama phage library; also called 416; sdAb416) VHH: EVQLVESGGGLVQPRGSLRLSCVVSGSMSSIYSMSWYRQPPGKQRELVAHITTTGTTNYIDSVKGRFTISIDNDINVIYLQMNTLKPEDTAVYYCNAGLKAGPGPRLDYWGLGTQVTVSS",binding result,[1],binds
same,Octet signal,[2],0.261
same,Octet signal,[3],0.565
same,Octet signal,[4],0.456
same,Octet signal,[5],0.229
same,Octet signal,[6],0.514
same,FACS binding data,[7],98.6
same,FACS binding data,[8],98.9
same,FACS binding data,[9],97.9
same,Octet signal,[37],0.697
same,Octet signal,[10],0.438
same,Octet signal,[11],0.34
same,Octet signal,[12],0.376
same,FACS binding data,[13],99.3
same,FACS binding data,[14],99.6
same,FACS binding data,[15],98.6
same,FACS binding data,[16],99
same,FACS binding data,[17],99.1
same,FACS binding data,[18],94.3
same,FACS binding data,[19],80.8
same,FACS binding data,[20],0.24
same,FACS binding data,[21],98.9
same,FACS binding data,[22],98.9
same,FACS binding data,[23],45.1
same,FACS binding data,[24],99.6
same,FACS binding data,[25],99
same,FACS binding data,[26],99.2
same,FACS binding data,[27],99
same,FACS binding data,[28],99.1
same,FACS binding data,[29],99.8
same,FACS binding data,[30],99.1
same,FACS binding data,[31],98.8
same,Octet signal,[33],0.22
same,FACS binding data,[34],1.25
same,FACS binding data,[35],98.7
same,FACS binding data,[36],96.6
"sdCD33_5 (VHH, sdAb from a naive llama phage library; also called 413; sdAb413) VHH: QVQLQESGGGLVQPGGSLRLSCAASGSVFSIYAMAWYRQAPGKQRELVAVITSGGATNYADSVKGRFTISRDIAKKTLYLQMNTLKPEDTAVYYCYAHLLIQPFDRFYDYWGQGTQVTVSS",binding result,[1],binds
same,Octet signal,[2],-0.0887
same,Octet signal,[3],0.648
same,Octet signal,[4],0.483
same,Octet signal,[5],-0.024
same,Octet signal,[6],0.0667
same,FACS binding data,[7],97
same,FACS binding data,[8],91.4
same,FACS binding data,[9],97.5
same,Octet signal,[37],0.63
same,Octet signal,[10],0.248
same,Octet signal,[11],0.15
same,FACS binding data,[13],76
same,FACS binding data,[14],99.4
same,FACS binding data,[15],97
same,FACS binding data,[16],98.2
same,FACS binding data,[17],98.6
same,FACS binding data,[18],98.4
same,FACS binding data,[19],98.3
same,FACS binding data,[20],0.81
same,FACS binding data,[21],90.2
same,FACS binding data,[22],98.6
same,FACS binding data,[23],58.5
same,FACS binding data,[24],99.3
same,FACS binding data,[25],56.7
same,FACS binding data,[26],98.5
same,FACS binding data,[27],99.5
same,FACS binding data,[28],0.79
same,FACS binding data,[29],49.2
same,FACS binding data,[30],84.6
same,FACS binding data,[31],98
same,Octet signal,[32],-0.0586
same,Octet signal,[33],-0.0796
same,FACS binding data,[34],76.4
same,FACS binding data,[35],96.8
same,FACS binding data,[36],5.93
